Results taken from PMC12561408, “AI‐Driven De Novo Design of Ultra Long‐Acting GLP‐1 Receptor Agonists” (Advanced Science, 2025).

Tests used:
Assay in all cases: SPR
Conditions in all cases: both partners purified
[1] = biological target: T1, GST-peptide fusion protein D44
T1 construct: source: E. coli BL21 (DE3), GST-peptide fusion; not shown: GST, N-terminal, kept

[2] = biological target: T2, GST-peptide fusion protein D41
T2 construct: source: E. coli BL21 (DE3), GST-peptide fusion; not shown: GST, N-terminal, kept

[3] = biological target: T3, GST-peptide fusion protein D13
T3 construct: source: E. coli BL21 (DE3), GST-peptide fusion; not shown: GST, N-terminal, kept

B1: Human GLP-1R protein (receptor)
chain: RPQGATVSLWETVQKWREYRRQCQRSLTEDPPPATDLFCNRTFDEYACWPDGEPGSFVNVSCPWYLPWASSVPQGHVYRFCTAEGLWLQKDNSSLPWRDLSECEESKRGERSSPEE
B1 was tested, and the Kd [1] was 6.78 µM, the Kd [2] was 5.19 µM and the Kd [3] was 8.58 µM.
